In patent US8324344B2, “Membrane transduction peptides and methods of delivering material to a target cell” (STC.UNM, priority 2008, dated 2012):
Entries after “also recorded” stand apart in the source; their conditions may differ.

Tests used:
[1] = tested on: HT-1080 cells; test: Internalization of offered recombinant proteins in HT-1080 cells, immunoblotting of cytosolic and nuclear fractions; type: cell-based, human; details: 1 μM; for Internalization to cytosol and nucleus of HT-1080 cells: 37° C., five minutes, immunoblot (FIG. 4B)
Description: HT-1080 cells were grown in six-well plates under standard conditions. At confluence, the cells were treated with fresh medium containing either wild-type TFPI-2, TFPI-2^1-188, R24Q KD1, R24K KD1, or R24K KD1-CT as previously described (Kempaiah and Kisiel, Apoptosis, 2008;13:702-715). Briefly, duplicate wells were treated with purified proteins (1 μM final concentration) and incubated at either 37° C. or 4° C. for different time periods. Two wells were also treated with phosphate-buffered saline (PBS) at each temperature to serve as a control. At selected time points, the media was removed and the cells were rinsed once with PBS. The cells were then washed with 1 M NaCl/PBS for 30 minutes with gentle shaking to dissociate cell surface-bound proteins (Iino et al., Arterioscler. Thromb. Vasc. Biol., 1998;18:40-46). Finally, the cells were rinsed once with PBS, trypsinized and harvested for the preparation of cell lysates and cell fractions.
To prepare total cell lysates, 1-3×10^6 cells were lysed by sonication in 500 μl of lysis buffer containing of 125 mM Tris-HCl (pH 6.8), 2% SDS, 10% glycerol, 50 mM sodium phosphate, 1 mM phenylmethanesulphonylfluoride (PMSF) and protease inhibitor cocktail. The lysate was kept on ice for about 10 minutes, centrifuged for 15 minutes at 10,000×g at 4° C., and the supernatant recovered. To prepare nuclear and cytosolic fractions, approximately 2×10^6 cells were harvested and washed twice with cold PBS by centrifugation at 600×g in a Beckman J-6M/E centrifuge for seven minutes at 4° C. Five volumes of ice cold cytosolic buffer (10 mM Hepes pH 7.4, 0.33 M sucrose, 1 mM MgCl2, 0.1% Triton X-100 and protease inhibitor cocktail) was added to the cells and incubated on ice for 15 minutes. The cytosolic fraction was collected by centrifugation at 900×g for five minutes at 4° C. The resulting undissolved pellet was washed twice with cytosolic buffer followed by centrifugation at 900×g for five minutes at 4° C. Finally, the resulting pellet was resuspended in five volumes of ice cold buffer containing 0.45 M NaCl in 10 mM Hepes (pH 7.4) and protease inhibitor cocktail. The suspension was incubated on ice for an additional 15 minutes to dissolve the nucleus, and subsequently centrifuged at 18,000×g for five minutes at 4° C. The resulting supernatant was collected as the nuclear extract. All samples were boiled for three minutes in the presence of 5% SDS and stored at −20° C. until use.
The cell lysate, cytosol and nuclear fractions were subjected to SDS-PAGE using 4-20% polyacrylamide gradient gels. […] The membranes were then probed with specific antibodies dissolved in fresh blocking buffer. Immunoreactive proteins were identified using HRP-conjugated secondary antibodies and a chemiluminescent reagent system essentially as described (Kempaiah et al., Mol. Cancer, 2007;6:20). The integrity of the cytosolic and nuclear fractions was verified using anti-α-tubulin and anti-histone-H1 antibodies, respectively (Guo et al., Am. J Physiol. Cell Physiol., 2007;292:2095-2102).
The relative intensity of the Western blot bands were quantified using QUANTISCAN software (Biosoft, Cambridge, U.K.). The intensities are reported in arbitrary units (A.U.) obtained by subtracting the background value from the corresponding band's mean value.

[2] = tested on: human tumor cell lines; details: cited from earlier work
[3] = tested on: HT-1080 cells; test: Confocal microscopy of Alexa Fluor 488-conjugated TFPI-2 internalization in HT-1080 cells; type: cell-based, human; details: 50 μg/ml
Description: The internalization of recombinant TFPI-2 in HT-1080 cells was assessed by confocal microscopy using a Zeiss LSM510-META microscope and Alexa Fluor 488-conjugated TFPI-2. Approximately 0.5 mg of recombinant TFPI-2 protein was labeled with Alexa Fluor 488 dye following the manufacturer's instructions. Alexa Fluor-conjugated protein (50 μg/ml) was added to two sets of HT-1080 cells that were grown to confluence in two-chamber culture slides and incubated either at 37° C. or 4° C. for different time periods. Cells were then washed twice with cold PBS and fixed with 4% paraformaldehyde solution for 15 minutes. The slides were further rinsed twice with cold PBS, treated with a drop of mounting medium containing 4′,6-diamidino-2-phenylindole (DAPI), and covered with a coverslip for confocal microscopy.

Molecule | Internalization to cytosol and nucleus of HT-1080 cells [1] | Internalization to cytosol and nucleus of HT-1080 cells ([1]; listed as R24KD 1-CT) | Internalization by HT-1080 cells after 48-hour incubation ([1]; 48-hour incubation at 37° C.) | Apoptosis induction potency relative to TFPI-2 [2] | Induction of caspase-mediated apoptosis ([2]; several tumor cell lines, exogenously offered, Kempaiah and Kisiel 2008) | Intracellular localization by confocal microscopy ([3]; 4° C., five minutes and 10 minutes (FIG. 1D)) | Intracellular localization by confocal microscopy ([3]; 4° C., two hour time point (FIG. 1D)) | Intracellular localization by confocal microscopy ([3]; two-hour incubation at 37° C. (FIG. 1B))
R24K KD1-CT: Chimera of first Kunitz-type domain (amino acids 1-73, R24K) and carboxy-terminal tail (amino acids 187-213) of TFPI-2, SEQ ID NO:2 (protein, chimera of the first Kunitz-type domain (with the R24K mutation) and the carboxy-terminal tail) DAAQEPTGNNAEICLLPLDYGPCRALLLRYYYDRYTQSCRQFLYGGCEGNANNFYTWEACDDACWRIEKVPKVEFAKALKKKKKMPKLRFASRIRKIRKKQF | is internalized to both the cytosol and nuclear fractions; also recorded: rapidly internalized and translocated to the nucleus | internalized and translocated to the nucleus within minutes | – | – | – | – | – | –
R24K KD1: Mutated first Kunitz-type domain of TFPI-2 (R24K), recombinant (protein, left off: small tags and cut ends, Mutated first Kunitz-type domain of TFPI-2 (R24K), recombinant) DAAQEPTGNNAEICLLPLDYGPCKALLLRYYYDRYTQSCRQFLYGGCEGNANNFYTWEACDDACWRIEKVPKV | is not internalized to either the cytosol or nucleus; also recorded: failed to enter the cells | – | failed to be internalized | more potent inducer of apoptosis than TFPI-2 | induce caspase-mediated apoptosis | – | – | –
Alexa Fluor 488-conjugated TFPI-2: Recombinant TFPI-2 protein labeled with Alexa Fluor 488 dye (conjugate, UniProt P48307 23-235, looked up, Alexa Fluor 488 label, Recombinant TFPI-2 protein labeled with Alexa Fluor 488 dye) Tissue factor pathway …: DAAQEPTGNNAEICLLPLDYGPCRALLLRYYYDRYTQSCRQFLYGGCEGNANNFYTWEACDDACWRIEKVPKVCRLQVSVDDQCEGSTEKYFFNLSSMTCEKFFSGGCHRNRIENRFPDEATCMGFCAPKKIPSFCYSPKDEGLCSANVTRYYFNPRYRTCDAFTYTGCGGNDNNFVSREDCKRACAKALKKKKKMPKLRFASRIRKIRKKQF | – | – | – | – | – | limited punctate distribution of TFPI-2 in the cytosol | significant cytosolic and nuclear-associated TFPI-2 | cytosolic and nuclear localization of TFPI-2; also recorded: uniform distribution of TFPI-2
